# IntAct's records for PubMed 25910212
# Legend:
# cap2_human CAP2 [1] = molecular target: cap2_human CAP2 (UniProt P40123)
# cap2_human CAP2 [2] = molecular target: cap2_human CAP2 (UniProt P40123); remark: listed apart in the source
# cof2_human CFL2 = cof2_human CFL2 (UniProt Q9Y281)
# KRT40 = KRT40 (UniProt Q6A162)
# tpp2_human TPP2 = tpp2_human TPP2 (UniProt P29144)
# kxdl1_human KXD1 = kxdl1_human KXD1 (UniProt Q9BQD3)
# ifit3_human IFIT3 [3] = molecular target: ifit3_human IFIT3 (UniProt O14879)
# Sequence of ifit3_human IFIT3 (O14879 whole entry): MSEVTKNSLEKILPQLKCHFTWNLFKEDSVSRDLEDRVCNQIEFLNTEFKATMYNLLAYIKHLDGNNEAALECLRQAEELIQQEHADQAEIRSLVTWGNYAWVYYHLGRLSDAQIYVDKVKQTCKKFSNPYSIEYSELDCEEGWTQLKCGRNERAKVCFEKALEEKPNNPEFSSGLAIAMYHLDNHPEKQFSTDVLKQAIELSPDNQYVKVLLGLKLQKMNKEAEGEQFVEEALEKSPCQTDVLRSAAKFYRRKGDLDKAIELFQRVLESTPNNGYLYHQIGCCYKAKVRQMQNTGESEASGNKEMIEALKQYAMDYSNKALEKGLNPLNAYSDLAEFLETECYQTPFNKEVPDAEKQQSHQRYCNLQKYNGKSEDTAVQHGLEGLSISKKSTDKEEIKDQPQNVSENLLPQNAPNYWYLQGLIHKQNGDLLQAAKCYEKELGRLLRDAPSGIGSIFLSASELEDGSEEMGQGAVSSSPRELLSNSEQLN
# tfpt_human TFPT = tfpt_human TFPT (UniProt P0C1Z6)
# Sequence of tfpt_human TFPT (P0C1Z6 whole entry): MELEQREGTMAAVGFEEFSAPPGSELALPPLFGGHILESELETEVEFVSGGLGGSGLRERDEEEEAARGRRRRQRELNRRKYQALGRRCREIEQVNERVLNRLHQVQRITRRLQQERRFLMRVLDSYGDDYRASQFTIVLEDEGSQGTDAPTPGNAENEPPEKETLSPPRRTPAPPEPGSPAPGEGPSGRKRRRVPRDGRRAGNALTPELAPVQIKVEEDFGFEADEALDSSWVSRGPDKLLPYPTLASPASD
# CAGE1, Q8TC20-4 [4] = molecular target: CAGE1, Q8TC20-4
# Sequence of CAGE1, Q8TC20-4 (Q8TC20 other isoform, or with tags, fused parts or gaps): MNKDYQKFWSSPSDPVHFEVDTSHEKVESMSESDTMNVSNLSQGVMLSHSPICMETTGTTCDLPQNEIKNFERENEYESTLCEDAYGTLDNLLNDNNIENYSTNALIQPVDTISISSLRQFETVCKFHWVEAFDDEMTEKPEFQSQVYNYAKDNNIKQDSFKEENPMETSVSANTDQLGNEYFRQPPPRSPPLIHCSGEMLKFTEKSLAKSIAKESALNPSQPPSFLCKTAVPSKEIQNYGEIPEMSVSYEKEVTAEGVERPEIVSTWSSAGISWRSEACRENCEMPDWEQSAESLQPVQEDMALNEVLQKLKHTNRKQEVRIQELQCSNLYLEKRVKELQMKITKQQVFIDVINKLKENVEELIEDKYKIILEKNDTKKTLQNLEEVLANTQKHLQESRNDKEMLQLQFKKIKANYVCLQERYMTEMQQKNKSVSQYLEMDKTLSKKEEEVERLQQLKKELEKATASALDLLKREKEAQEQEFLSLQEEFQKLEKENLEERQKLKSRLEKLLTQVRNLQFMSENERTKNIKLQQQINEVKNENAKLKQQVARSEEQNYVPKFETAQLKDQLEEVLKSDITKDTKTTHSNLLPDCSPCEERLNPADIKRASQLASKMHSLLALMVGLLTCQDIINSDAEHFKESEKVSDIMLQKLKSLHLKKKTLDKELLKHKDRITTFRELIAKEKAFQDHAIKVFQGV
# CAGE1, Q8TC20-4 [5] = molecular target: CAGE1, Q8TC20-4; remark: listed apart in the source
# md1l1_human MAD1L1 = md1l1_human MAD1L1 (UniProt Q9Y6D9)
# Sequence of md1l1_human MAD1L1 (Q9Y6D9 whole entry): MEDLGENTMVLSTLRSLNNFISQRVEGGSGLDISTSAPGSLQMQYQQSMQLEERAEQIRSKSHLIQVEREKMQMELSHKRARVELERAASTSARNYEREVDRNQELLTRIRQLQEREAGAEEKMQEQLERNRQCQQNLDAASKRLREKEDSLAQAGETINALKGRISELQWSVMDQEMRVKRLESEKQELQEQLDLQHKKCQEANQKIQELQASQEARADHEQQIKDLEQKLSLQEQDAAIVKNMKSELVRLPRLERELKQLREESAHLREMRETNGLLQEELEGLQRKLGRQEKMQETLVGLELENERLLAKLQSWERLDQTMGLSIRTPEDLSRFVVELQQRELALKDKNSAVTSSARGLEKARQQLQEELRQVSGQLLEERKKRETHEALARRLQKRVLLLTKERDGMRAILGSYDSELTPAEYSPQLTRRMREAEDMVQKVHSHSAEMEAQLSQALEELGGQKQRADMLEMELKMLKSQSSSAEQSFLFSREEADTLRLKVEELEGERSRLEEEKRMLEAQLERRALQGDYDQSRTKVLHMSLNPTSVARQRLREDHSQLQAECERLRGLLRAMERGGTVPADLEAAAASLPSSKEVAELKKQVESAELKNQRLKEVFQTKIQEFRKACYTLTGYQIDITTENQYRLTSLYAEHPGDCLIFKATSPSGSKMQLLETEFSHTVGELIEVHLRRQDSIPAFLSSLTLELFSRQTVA
# ifit3_human IFIT3 [6] = molecular target: ifit3_human IFIT3 (UniProt O14879); remark: listed apart in the source
# goga2_human GOLGA2 = goga2_human GOLGA2 (UniProt Q08379)
# Sequence of goga2_human GOLGA2 (Q08379 whole entry): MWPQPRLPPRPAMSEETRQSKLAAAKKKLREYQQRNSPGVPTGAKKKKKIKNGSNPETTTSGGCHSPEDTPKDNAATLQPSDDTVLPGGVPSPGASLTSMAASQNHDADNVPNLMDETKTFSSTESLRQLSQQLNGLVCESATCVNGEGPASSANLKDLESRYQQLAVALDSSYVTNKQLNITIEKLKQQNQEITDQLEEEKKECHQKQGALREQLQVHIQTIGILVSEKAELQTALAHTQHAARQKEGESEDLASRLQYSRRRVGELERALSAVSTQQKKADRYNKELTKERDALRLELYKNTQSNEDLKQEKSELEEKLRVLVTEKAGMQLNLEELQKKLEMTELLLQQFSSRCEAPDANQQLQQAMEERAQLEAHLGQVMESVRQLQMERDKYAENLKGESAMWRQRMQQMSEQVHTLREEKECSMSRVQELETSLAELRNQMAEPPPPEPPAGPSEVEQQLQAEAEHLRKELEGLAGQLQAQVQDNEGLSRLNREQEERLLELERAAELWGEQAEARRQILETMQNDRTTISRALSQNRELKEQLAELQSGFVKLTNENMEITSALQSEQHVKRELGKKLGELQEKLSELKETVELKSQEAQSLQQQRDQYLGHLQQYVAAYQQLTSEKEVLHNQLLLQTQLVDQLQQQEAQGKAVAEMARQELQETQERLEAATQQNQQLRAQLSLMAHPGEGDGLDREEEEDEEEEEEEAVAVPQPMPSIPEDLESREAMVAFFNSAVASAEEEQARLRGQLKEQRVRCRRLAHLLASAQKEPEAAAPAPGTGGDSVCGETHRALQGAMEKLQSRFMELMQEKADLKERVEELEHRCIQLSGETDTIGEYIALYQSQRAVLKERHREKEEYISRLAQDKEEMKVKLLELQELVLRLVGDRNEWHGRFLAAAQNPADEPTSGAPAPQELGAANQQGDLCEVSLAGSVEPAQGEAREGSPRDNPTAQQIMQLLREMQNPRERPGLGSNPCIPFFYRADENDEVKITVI
# syce1_human SYCE1 [7] = molecular target: syce1_human SYCE1 (UniProt Q8N0S2)
# Sequence of syce1_human SYCE1 (Q8N0S2 whole entry): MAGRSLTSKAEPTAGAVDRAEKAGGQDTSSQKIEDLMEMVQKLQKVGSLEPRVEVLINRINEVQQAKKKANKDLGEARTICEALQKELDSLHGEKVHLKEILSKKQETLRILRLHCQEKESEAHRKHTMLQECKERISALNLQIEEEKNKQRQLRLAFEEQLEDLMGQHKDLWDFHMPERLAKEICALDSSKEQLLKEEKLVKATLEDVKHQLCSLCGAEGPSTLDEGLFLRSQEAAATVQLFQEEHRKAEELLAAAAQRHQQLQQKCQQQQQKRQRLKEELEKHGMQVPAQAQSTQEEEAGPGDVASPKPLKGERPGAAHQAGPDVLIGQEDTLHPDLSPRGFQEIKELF
# syce1_human SYCE1 [8] = molecular target: syce1_human SYCE1 (UniProt Q8N0S2); remark: listed apart in the source
# Sequence of Tropomyosin alpha-1 chain (Homo sapiens), P09493-10 V95A (P09493 other isoform, or with tags, fused parts or gaps V95A): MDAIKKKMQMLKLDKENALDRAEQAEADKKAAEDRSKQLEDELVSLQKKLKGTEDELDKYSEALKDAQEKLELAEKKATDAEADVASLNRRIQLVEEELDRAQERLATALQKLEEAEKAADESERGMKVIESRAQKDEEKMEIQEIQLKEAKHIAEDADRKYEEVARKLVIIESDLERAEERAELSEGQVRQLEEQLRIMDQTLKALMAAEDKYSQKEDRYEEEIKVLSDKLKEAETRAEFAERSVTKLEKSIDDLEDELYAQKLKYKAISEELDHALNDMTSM
# Sequence of Tropomyosin alpha-1 chain (Homo sapiens), P09493-10 D175N (P09493 other isoform, or with tags, fused parts or gaps D175N): as the sequence (P09493 other isoform, or with tags, fused parts or gaps V95A) above
# Sequence of TNNT1, P13805-3 (P13805 other isoform, or with tags, fused parts or gaps): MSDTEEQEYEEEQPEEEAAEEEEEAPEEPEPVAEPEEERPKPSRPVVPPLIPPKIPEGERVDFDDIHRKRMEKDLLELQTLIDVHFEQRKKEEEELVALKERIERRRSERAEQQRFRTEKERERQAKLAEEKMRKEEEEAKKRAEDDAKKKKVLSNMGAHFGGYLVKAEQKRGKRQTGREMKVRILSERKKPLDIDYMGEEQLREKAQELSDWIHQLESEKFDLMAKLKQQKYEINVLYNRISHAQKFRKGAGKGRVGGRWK
# Sequence of kxdl1_human KXD1 (Q9BQD3 whole entry): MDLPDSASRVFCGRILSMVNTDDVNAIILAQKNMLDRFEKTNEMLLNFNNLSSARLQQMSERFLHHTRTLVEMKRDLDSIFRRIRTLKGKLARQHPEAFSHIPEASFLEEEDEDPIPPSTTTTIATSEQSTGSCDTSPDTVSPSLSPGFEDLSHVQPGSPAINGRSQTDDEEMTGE
# Sequence of MTUS2, Q5JR59-3 (Q5JR59 other isoform, or with tags, fused parts or gaps): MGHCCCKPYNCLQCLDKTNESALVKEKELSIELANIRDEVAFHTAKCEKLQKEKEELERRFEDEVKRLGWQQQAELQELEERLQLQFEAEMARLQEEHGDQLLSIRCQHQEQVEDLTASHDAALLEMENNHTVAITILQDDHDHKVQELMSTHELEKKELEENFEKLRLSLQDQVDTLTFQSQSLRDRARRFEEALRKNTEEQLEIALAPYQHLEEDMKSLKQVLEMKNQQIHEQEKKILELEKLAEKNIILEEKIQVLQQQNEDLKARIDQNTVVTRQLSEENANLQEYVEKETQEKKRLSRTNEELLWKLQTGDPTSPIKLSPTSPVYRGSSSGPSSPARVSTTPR
# Sequence of Cytochrome c (Homo sapiens), P99999 G42S (P99999 whole entry G42S): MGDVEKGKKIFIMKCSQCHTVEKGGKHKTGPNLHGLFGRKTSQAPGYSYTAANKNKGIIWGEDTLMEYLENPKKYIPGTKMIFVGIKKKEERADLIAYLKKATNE
Substance,effect of a mutation on the interaction (kxdl1_human KXD1),effect of a mutation on the interaction (tfpt_human TFPT),effect of a mutation on the interaction (md1l1_human MAD1L1),effect of a mutation on the interaction (ifit3_human IFIT3 [6]),effect of a mutation on the interaction (goga2_human GOLGA2),"effect of a mutation on the interaction (TNNT1, P13805-3)",effect of a mutation on the interaction (syce1_human SYCE1 [7]),"effect of a mutation on the interaction (CAGE1, Q8TC20-4 [4])",further results
"Actin, cytoplasmic 1 (Homo sapiens) (from UniProt P60709) R183W",,,,,,,,,effect of a mutation on the interaction (cap2_human CAP2 [1]): causing an interaction; effect of a mutation on the interaction (cap2_human CAP2 [2]): with no effect; effect of a mutation on the interaction (cof2_human CFL2): with no effect
"Cytochrome c (Homo sapiens), P99999 G42S",,,,,,,,,effect of a mutation on the interaction (KRT40): with no effect
DNA polymerase beta (Homo sapiens) (from UniProt P06746) R137Q,,,,,,,,,effect of a mutation on the interaction (tpp2_human TPP2): with no effect
"Zinc finger protein 624 (Homo sapiens), Q9P2J8 K135N",,,,,,,,,"effect of a mutation on the interaction (MTUS2, Q5JR59-3): with no effect"

# The next lines start with results.
effect of a mutation on the interaction (kxdl1_human KXD1),effect of a mutation on the interaction (tfpt_human TFPT),effect of a mutation on the interaction (md1l1_human MAD1L1),effect of a mutation on the interaction (ifit3_human IFIT3 [6]),effect of a mutation on the interaction (goga2_human GOLGA2),"effect of a mutation on the interaction (TNNT1, P13805-3)",effect of a mutation on the interaction (syce1_human SYCE1 [7]),Substance,"effect of a mutation on the interaction (CAGE1, Q8TC20-4 [4])",further results
with no effect,with no effect,with no effect,with no effect,with no effect,with no effect,with no effect,"Tropomyosin alpha-1 chain (Homo sapiens), P09493-10 D175N",with no effect,"effect of a mutation on the interaction (ifit3_human IFIT3 [3]): causing an interaction; effect of a mutation on the interaction (CAGE1, Q8TC20-4 [5]): causing an interaction"
with no effect,with no effect,with no effect,with no effect,disrupting interaction strength,with no effect,disrupting interaction strength,"Tropomyosin alpha-1 chain (Homo sapiens), P09493-10 V95A",with no effect,effect of a mutation on the interaction (syce1_human SYCE1 [8]): with no effect
